Experimental data published in US20100062978A1 (UNIVERSITY OF TOKYO, published 2010).
One block for each binder: values may come before it.

What was measured:
[1] = biological target: T1, GST-ERK2 fusion protein (glutathione S-transferase fused with human ERK2, from pGEX-4T-1) (human, UniProt P28482 1-360); assay: GST-ERK2 pull-down from HEK293 lysate, immunoblot
T1 construct: Expressed in E. coli BL21 and immobilised on Glutathione Sepharose beads for the pull-down; not shown: glutathione S-transferase (GST) encoded by the vector pGEX-4T-1
T1 sequence (P28482 whole entry, the tested form may be a part): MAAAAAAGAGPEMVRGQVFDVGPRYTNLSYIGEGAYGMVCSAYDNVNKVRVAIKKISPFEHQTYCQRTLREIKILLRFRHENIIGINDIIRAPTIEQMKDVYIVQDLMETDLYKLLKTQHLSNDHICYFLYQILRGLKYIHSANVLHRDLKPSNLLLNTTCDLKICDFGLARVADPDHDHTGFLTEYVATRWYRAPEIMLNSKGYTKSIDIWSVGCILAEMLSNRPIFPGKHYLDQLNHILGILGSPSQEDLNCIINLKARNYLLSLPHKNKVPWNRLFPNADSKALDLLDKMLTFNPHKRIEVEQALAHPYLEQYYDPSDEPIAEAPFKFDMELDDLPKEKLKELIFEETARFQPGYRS

[2] = biological target: T2, wild-type human EGFR (erbB1) (human, UniProt P00533 25-1210); assay: co-immunoprecipitation with anti-EGFR antibody from HEK293 lysate, immunoblot
T2 construct: whole, on cells; precipitated from cell lysates with anti-EGFR antibody; also called HER1; wild-type EGFR
Method: Before EGF treatment, Saos-2 cell or HEK293 cell was kept serum deficiency state for 24 hours.

binding result [1]: no binding
B1: 1-236 variant of human SNT-2, C-terminal FLAG-tag (other)
chain: MGSCCSCLNRDSVPDNHPTKFKVTNVDDEGVELGSGVMELTQSELVLHLHRREAVRWPYLCLRRYGYDSNLFSFESGRRCQTGQGIFAFKCSRAEEIFNLLQDLMQCNSINVMEEPVIITRNSHPAELDLPRAPQPPNALGYTVSSFSNGCPGEGPRFSAPRRLSTSSLRHPSLGEESTHALIAPDEQSHTYVNTPASEDDHRRGRHCLQPLPEGQAPFLPQARGPDQRDPQVFLQ
notes: C-terminal-cut-off variant expressed in HEK293 cells; not shown: C-terminal FLAG-tag

binding result [2]: no binding
B2: 186-328 variant of human SNT-2 (PTB-domain-deleted), C-terminal FLAG-tag (other)
chain: DEQSHTYVNTPASEDDHRRGRHCLQPLPEGQAPFLPQARGPDQRDPQVFLQPGQVKFVLGPTPARRHMVKCQGLCPSLHDPPHHNNNNEAPSECPAQPKCTYENVTGGLWRGAGWRLSPEEPGWNGLAHRRAALLHYENLPPL
notes: not shown: C-terminal FLAG-tag
